# Test results reported in paper PMC10567702, “A concerted ATPase cycle of the protein transporter AAA-ATPase Bcs1” (Nature Communications, 2023).
# B1: Bcs1 (mBcs1) (Mus musculus) (protein)
# chain: MPFSDFVLALKDNPYFGAGFGLVGVGTALAMARKGAQLGLVAFRRHYMITLEVPARDRSYAWLLSWLTRHSTRTQHLSVETSYLQHESGRISTKFEFIPSPGNHFIWYQGKWIRVERNRDMQMVDLQTGTPWESVTFTALGTDRKVFFNILEEARALALQQEEGKTVMYTAVGSEWRTFGYPRRRRPLDSVVLQQGLADRIVKDIREFIDNPKWYIDRGIPYRRGYLLYGPPGCGKSSFITALAGELEHSICLLSLTDSSLSDDRLNHLLSVAPQQSLVLLEDVDAAFLSRDLAVENPIKYQGLGRLTFSGLLNALDGVASTEARIVFMTTNYIDRLDPALIRPGRVDLKEYVGYCSHWQLTQMFQRFYPGQAPSLAENFAEHVLKATSEISPAQVQGYFMLYKNDPMGAVHNIESLR
# Substrate: Nc1ncnc2c1ncn2[C@@H]1O[C@H](COP(=O)(O)OP(=O)(O)OP(=O)(O)O)[C@@H](O)[C@H]1O
# Test: purified protein
# Details: conformational turnover per ring (printed as Vmax, maximum turnover rate), reconstituted membranes, 10 mM HEPES pH 7.5, 200 mM NaCl, 2 mM MgCl2, ambient temperature
protein,measurement,value
B1,Km,0.2 µM
same,kcat,~0.17 s⁻¹
